For experiment [1], the target named is T1, human GIPR (human), P48546.
T1 chain: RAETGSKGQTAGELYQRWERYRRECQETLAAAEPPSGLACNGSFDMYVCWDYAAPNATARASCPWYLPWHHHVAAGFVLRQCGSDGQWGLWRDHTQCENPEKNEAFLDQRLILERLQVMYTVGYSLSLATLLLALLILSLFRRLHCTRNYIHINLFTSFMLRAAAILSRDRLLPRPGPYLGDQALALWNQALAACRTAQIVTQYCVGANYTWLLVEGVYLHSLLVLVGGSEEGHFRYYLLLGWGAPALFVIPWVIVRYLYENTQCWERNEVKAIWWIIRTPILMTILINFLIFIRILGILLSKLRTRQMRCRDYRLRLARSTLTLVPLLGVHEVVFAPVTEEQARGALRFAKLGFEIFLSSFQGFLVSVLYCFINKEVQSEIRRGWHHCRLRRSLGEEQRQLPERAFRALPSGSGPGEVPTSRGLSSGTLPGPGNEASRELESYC

Experiment [2] deals with T2, human GLP-1R (human), P43220.
T2 chain: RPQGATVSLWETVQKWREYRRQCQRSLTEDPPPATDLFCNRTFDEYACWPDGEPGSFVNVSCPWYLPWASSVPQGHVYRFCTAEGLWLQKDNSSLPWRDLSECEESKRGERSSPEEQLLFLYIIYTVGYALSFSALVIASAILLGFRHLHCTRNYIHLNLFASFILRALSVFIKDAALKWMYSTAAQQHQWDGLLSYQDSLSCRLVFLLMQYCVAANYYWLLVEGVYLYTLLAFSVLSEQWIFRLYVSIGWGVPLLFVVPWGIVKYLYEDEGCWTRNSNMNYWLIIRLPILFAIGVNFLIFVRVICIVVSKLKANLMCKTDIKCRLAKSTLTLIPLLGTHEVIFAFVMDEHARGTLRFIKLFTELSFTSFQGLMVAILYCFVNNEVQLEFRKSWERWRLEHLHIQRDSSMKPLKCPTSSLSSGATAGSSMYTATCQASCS

Non-standard residues stand in square brackets, D forms with d. Groups on a side chain read outwards from the residue. Primed or numbered codes have the meaning given here. No end group written: not given here. *: point of attachment. C20 diacid = O=C(O)CCCCCCCCCCCCCCCCCCC(=O)*; NMeY = CN[C@@H](Cc1ccc(O)cc1)C(=O)O; Stearoyl = CCCCCCCCCCCCCCCCCC(=O)*; αMeF = C[C@](N)(Cc1ccccc1)C(=O)O; dIva = CC[C@@](C)(N)C(=O)O; Iva = CC[C@](C)(N)C(=O)O; PEG2′ = not defined here; Aib = CC(C)(N)C(=O)O

Drawing on patent US20180298070A1, “PEPTIDE COMPOUND” (Takeda Pharmaceutical Company Limited, published 2018), this text covers Agonist activity (EC50, M) for 22 molecules.

On to [NMeY][Aib]EGTFISDYSI[dIva]LDRIAQ[Aib]NFVNWLLAQRPSSGAPPPSR (ends and bridges not checked) [Compound 83], for which the Agonist activity (EC50, M) in experiment [1] amounted to 1.7e-12 M; in experiment [2] it was 1.7e-07 M.

As for Y[Aib]EGTFISDYSK([PEG(2)-C20 diacid])ALDRIAQQNFVNW[Iva]LAQRPSSGAPPPS (not fully specified (C-terminus); ends and bridges not checked) [Compound 406], the Agonist activity (EC50, M) in experiment [1] was 3.2e-10 M; in experiment [2] it was more than 1e-06 M.

[NMeY][Aib]EGTFISDYSI[dIva]LDRIAQQDFVNWLLAQRPSSGAPPPS (ends and bridges not checked) [Compound 63]: the Agonist activity (EC50, M) was 1.2e-12 M in experiment [1] and more than 1e-06 M in experiment [2].

As to [NMeY][Aib]EGTFISDYSI[Iva]LDRIAQQD[αMeF]VNWLLAQRPSSGAPPPSR (not fully specified (C-terminus); ends and bridges not checked) [Compound 74], the Agonist activity (EC50, M) is 1.4e-12 M in experiment [1] and more than 1e-06 M in experiment [2].

For [NMeY][Aib]EGTFISDYSIALDR[Aib]AQ[Aib]N[αMeF]VNWLLAQRPSSGAPPPSR (ends and bridges not checked) [Compound 98], the Agonist activity (EC50, M) in experiment [1] was 1.4e-12 M; in experiment [2] it was more than 1e-06 M.

In the case of [NMeY][Aib]EGTFISDYSIALDRIAQQSFVNW[Iva]LAQRPSSGAPPPSR (not fully specified (N-terminus, C-terminus); ends and bridges not checked) [Compound 67], the Agonist activity (EC50, M) was 1.4e-12 M in experiment [1] and more than 1e-06 M in experiment [2].

With [NMeY][Aib]EGTFISDYSIALDR[Aib]AQQD[αMeF]VNWLLAQRPSSGAPPPSR (not fully specified (C-terminus); ends and bridges not checked) [Compound 73], the Agonist activity (EC50, M) in experiment [1] is 1.4e-12 M; in experiment [2], more than 1e-06 M.

Turning to Y[Aib]EGTFISDYSK([PEG(2)-C20 diacid])ALDRIAQQNFVNW[Iva]LAQRPSSGAPPPS (not fully specified (C-terminus); ends and bridges not checked) [Compound 402], the figures for the Agonist activity (EC50, M) in experiment [1] and in experiment [2] were 7.8e-11 M and more than 1e-06 M, respectively.

Consider Y[Aib]EGTVVSLYSK([Gly-Gly-Gly-Gly-Stearoyl])[Aib]LDRQAQ[Aib]EFVK(Ac)WLLAQR (ends and bridges not checked) [Compound 261], for which the results for the Agonist activity (EC50, M) in experiment [1] and in experiment [2] were 5.5e-11 M and more than 1e-06 M, respectively.

Y[Aib]EGTFISDYSK([PEG2′-pentadecanoyl])ALDRIAQQDFVNWLLAQRPSSGAPPPSR (ends and bridges not checked) [Compound 187] displayed an Agonist activity (EC50, M) in experiment [1] of 1.2e-11 M.

Regarding Y[Aib]EGTVVSLYSK([Gly-Gly-Gly-Gly-C20 diacid])[Aib]LDRQAQ[Aib]EFVRWLLAQR (ends and bridges not checked) [Compound 256], the Agonist activity (EC50, M) in experiment [1] is 3.1e-10 M; in experiment [2] it was more than 1e-06 M.

Regarding [NMeY][Aib]EGTFISDYSIALDR[Aib]AQ[Aib]NFVNWLLAQRPSSGAPPPSR (ends and bridges not checked) [Compound 82], the Agonist activity (EC50, M) in experiment [1] came to 1.4e-12 M; in experiment [2], 1e-07 M.

Turning to [NMeY][Aib]EGTFISDYSIALDR[Aib]AQ[Aib]N[αMeF]VNW[Iva]LAQRPSSGAPPPSR (ends and bridges not checked) [Compound 114], the Agonist activity (EC50, M) in experiment [1] was determined as 1e-12 M.

On to [NMeY][Aib]EGTFISDYSIALDRIAQQSFVNWLLAQRPSSGAPPPSR (ends and bridges not checked) [Compound 60], for which the results for the Agonist activity (EC50, M) in experiment [1] and in experiment [2] were 1.1e-12 M and more than 1e-06 M, respectively.

As for Y[Aib]EGTVVSLYSK([Gly-Gly-Gly-Gly-Stearoyl])[Aib]LDRQAQ[Aib]EFVRWLLAQR (ends and bridges not checked) [Compound 258], the Agonist activity (EC50, M) in experiment [1] was 9.2e-11 M; in experiment [2], more than 1e-06 M.

As for Y[Aib]EGTVVSLYSK([Gly-Gly-Gly-Gly-Stearoyl])[Aib]LDRQAQ[Aib]EFVRWLLAQR (ends and bridges not checked) [Compound 257], the Agonist activity (EC50, M) is 9e-11 M in experiment [1] and more than 1e-06 M in experiment [2].

As to [NMeY][Aib]EGTFISDYSIALDRIAQ[Aib]N[αMeF]VNW[Iva]LAQRPSSGAPPPSR (not fully specified (C-terminus); ends and bridges not checked) [Compound 76], the Agonist activity (EC50, M) in experiment [1] was 1.5e-12 M; in experiment [2], more than 1e-06 M.

In the case of [NMeY][Aib]EGTFISDYSI[dIva]LDR[Aib]AQ[Aib]NFVNW[Iva]LAQRPSSGAPPPSR (ends and bridges not checked) [Compound 85], the Agonist activity (EC50, M) in experiment [1] is 1.1e-12 M; in experiment [2], more than 1e-06 M.

Turning to [NMeY][Aib]EGTFISDYSIALDRIAQQS[αMeF]VNW[Iva]LAQRPSSGAPPPSR (not fully specified (C-terminus); ends and bridges not checked) [Compound 75], the results for the Agonist activity (EC50, M) in experiment [1] and in experiment [2] were 1.4e-12 M and more than 1e-06 M, respectively.

As for [NMeY][Aib]EGTFISDYSIALDRIAQQD[αMeF]VNWLLAQRPSSGAPPPS (ends and bridges not checked) [Compound 62], the Agonist activity (EC50, M) is 9.9e-13 M in experiment [1] and more than 1e-06 M in experiment [2].

As for Y[Aib]EGTVVSLYSK([Gly-Gly-Gly-Gly-C20 diacid])[Aib]LDRQAQ[Aib]EFVK(Ac)WLLAQR (ends and bridges not checked) [Compound 259], the Agonist activity (EC50, M) in experiment [1] was 1.2e-10 M; in experiment [2] it was more than 1e-06 M.

Turning to [NMeY][Aib]EGTFISDYSI[dIva]LDR[Aib]AQQD[αMeF]VNWLLAQRPSSGAPPPSR (ends and bridges not checked) [Compound 81], the Agonist activity (EC50, M) in experiment [1] was 1.5e-12 M; in experiment [2], more than 1e-06 M.
